Patent publication US6322962A, “Sterol-regulated Site-1 protease and assays of modulators thereof” (Board of Regents, The University of Texas System, priority 1999, dated 2001)

What was measured:
furin = conditions: cited from earlier work
SREBP-2 = assay: Immunoblot of cleavage of HSV-tagged SREBP-2 in transfected SRD-12B cells; format: cell-based, hamster; conditions: for cleavage of SREBP-2 by S1P or S1P mutant: SRD-12B cells, HSV-tagged SREBP-2
Method: On day 0, SRD-12B cells were set up at a density of 6×10^5 cells/60-mm dish in medium B. On day 1, cells were transfected with 4 μg of the indicated plasmid DNA plus 12 μl of LipofectAMINE™ reagent (Life Technologies) according to the manufacturer's instructions with modifications as follows. LipofectAMINE™/DNA complexes were formed in 1 ml of serum-free medium for 15 min at room temperature, and 0.5 ml were added to 1 ml of serum-free medium per dish. […] After incubation at 37 ° C. for 20 h, the cells received N-acetyl-leucinal-leucinal norleucinal (ALLN) at a final concentration of 25 μg/ml. […] After boiling for 5 min, the proteins were subjected to SDS-PAGE and transferred to Hybond-C Extra nitrocellulose filters (Amersham). The filters were incubated with the antibodies described in the figure legends. […] Gels were calibrated with prestained molecular weight markers (New England Biolabs, Beverly, Mass.). Filters were exposed to X-Omat Blue XB-1 film (Kodak, Rochester, N.Y.) with intensifying screens at room temperature for the indicated time.
Cell membranes and nuclear extracts were subjected to electrophoresis and blotted with an antibody against the HSV epitope-tag.
In a more direct test for S1P catalytic activity, the mutant plasmids were transfected into the SRD-12B cells together with pTK-HSV-BP2. Membranes and nuclear extracts were subjected to SDS-PAGE and blotted with an antibody against the HSV-tagged SREBP-2 (FIG. 9B).
The inventors cotransfected cDNAs encoding wild-type S1P or one of the mutants. Cell membrane pellets and nuclear extracts were subjected to SDS-PAGE. and the NH2 -terminus of SREBP-2 was visualized by immunoblotting with anti-HSV (FIG. 16A).

Molecule	cleavage of SREBP-2 by S1P or S1P mutant (SREBP-2)	other results
O=C(O)CN(CCN(CC(=O)O)CC(=O)O)CC(=O)O [EDTA]		inhibition of furin (furin; Nakayama, 1997, Molloy et al., 1992): totally inhibited
furin: subtilisin-like protease, literature comparator		Kcat (furin in a similar assay) (furin; Molloy et al., 1992): 1.6 mol/min per mol of enzyme; pH optimum (furin; furin and the prohormone convertases, Nakayama, 1997): 6-7
S1P-C: amino acids 187-1052 of SEQ ID NO:1 (protein) RAIPRQVAQTLQADVLWQMGYTGANVRVAVFDTGLSEKHPHFKNVKERTNWTNERTLDDGLGHGTFVAGVIASMRECQGFAPDAELHIFRVFTNNQVSYTSWFLDAFNYAILKKIDVLNLSIGGPDFMDHPFVDKVWELTANNVIMVSAIGNDGPLYGTLNNPADQMDVIGVGGIDFEDNIARFSSRGMTTWELPGGYGRVKPDIVTYGAGVRGSGVKGGCRALSGTSVASPVVAGAVTLLVSTVQKRELVNPASVKQALIASARRLPGVNMFEQGHGKLDLLRAYQILSSYKPQASLSPSYIDLTECPYMWPYCSQPIYYGGMPTIVNVTILNGMGVTGRIVDKPEWRPYLPQNGDNIEVAFSYSSVLWPWSGYLAISISVTKKAASWEGIAQGHIMITVASPAETEAKNGAEHTSTVKLPIKVKIIPTPPRSKRVLWDQYHNLRYPPGYFPRDNLRMKNDPLDWNGDHVHTNFRDMYQHLRSMGYFVEVLGAPFTCFDATQYGTLLMVDSEEEYFPEEIAKLRRDVDNGLSLVIFSDWYNTSVMRKVKFYDENTRQWWMPDTGGANIPALNELLSVWNMGFSDGLYEGEFALANHDMYYASGCSIAKFPEDGVVITQTFKDQGLEVLKQETAVVENVPILGLYQIPAEGGGRIVLYGDSNCLDDSHRQKDCFWLLDALLQYTSYGVNPPSLSHSGNRQRPPSGAGLAPPERMEGNHLHRYSKVLEAHLGDPKPRPLPACPHLSWAKPQPLNETAPSNLWKHQKLLSIDLDKVVLPNFRSNRPQVRPLSPGESGAWDIPGGIMPGRYNQEVGQTIPVFAFLGAMVALAFFVVQISKAKSRPKRRRPRAKRPQLTQQTHPPRTPSV	active	
S1P-B: amino acids 138-1052 of SEQ ID NO:1 (protein) FAESDPIVPCNETRWSQKWQSSRPLRRASLSLGSGFWHATGRHSSRRLLRAIPRQVAQTLQADVLWQMGYTGANVRVAVFDTGLSEKHPHFKNVKERTNWTNERTLDDGLGHGTFVAGVIASMRECQGFAPDAELHIFRVFTNNQVSYTSWFLDAFNYAILKKIDVLNLSIGGPDFMDHPFVDKVWELTANNVIMVSAIGNDGPLYGTLNNPADQMDVIGVGGIDFEDNIARFSSRGMTTWELPGGYGRVKPDIVTYGAGVRGSGVKGGCRALSGTSVASPVVAGAVTLLVSTVQKRELVNPASVKQALIASARRLPGVNMFEQGHGKLDLLRAYQILSSYKPQASLSPSYIDLTECPYMWPYCSQPIYYGGMPTIVNVTILNGMGVTGRIVDKPEWRPYLPQNGDNIEVAFSYSSVLWPWSGYLAISISVTKKAASWEGIAQGHIMITVASPAETEAKNGAEHTSTVKLPIKVKIIPTPPRSKRVLWDQYHNLRYPPGYFPRDNLRMKNDPLDWNGDHVHTNFRDMYQHLRSMGYFVEVLGAPFTCFDATQYGTLLMVDSEEEYFPEEIAKLRRDVDNGLSLVIFSDWYNTSVMRKVKFYDENTRQWWMPDTGGANIPALNELLSVWNMGFSDGLYEGEFALANHDMYYASGCSIAKFPEDGVVITQTFKDQGLEVLKQETAVVENVPILGLYQIPAEGGGRIVLYGDSNCLDDSHRQKDCFWLLDALLQYTSYGVNPPSLSHSGNRQRPPSGAGLAPPERMEGNHLHRYSKVLEAHLGDPKPRPLPACPHLSWAKPQPLNETAPSNLWKHQKLLSIDLDKVVLPNFRSNRPQVRPLSPGESGAWDIPGGIMPGRYNQEVGQTIPVFAFLGAMVALAFFVVQISKAKSRPKRRRPRAKRPQLTQQTHPPRTPSV	active	
Site-B mutant: S1P with amino acids 134-137 mutated from RSLK to AAAA (protein) MKLINIWLLLLVVLLCGKKHLGDRLGKKAFEKASCPSCSHLTLKVEFSSTVVEYEYIVAFNGYFTAKARNSFISSALKSSEVDNWRIIPRNNPSSDYPSDFEVIQIKEKQKAGLLTLEDHPNIKRVTPQRKVFAAAAFAESDPIVPCNETRWSQKWQSSRPLRRASLSLGSGFWHATGRHSSRRLLRAIPRQVAQTLQADVLWQMGYTGANVRVAVFDTGLSEKHPHFKNVKERTNWTNERTLDDGLGHGTFVAGVIASMRECQGFAPDAELHIFRVFTNNQVSYTSWFLDAFNYAILKKIDVLNLSIGGPDFMDHPFVDKVWELTANNVIMVSAIGNDGPLYGTLNNPADQMDVIGVGGIDFEDNIARFSSRGMTTWELPGGYGRVKPDIVTYGAGVRGSGVKGGCRALSGTSVASPVVAGAVTLLVSTVQKRELVNPASVKQALIASARRLPGVNMFEQGHGKLDLLRAYQILSSYKPQASLSPSYIDLTECPYMWPYCSQPIYYGGMPTIVNVTILNGMGVTGRIVDKPEWRPYLPQNGDNIEVAFSYSSVLWPWSGYLAISISVTKKAASWEGIAQGHIMITVASPAETEAKNGAEHTSTVKLPIKVKIIPTPPRSKRVLWDQYHNLRYPPGYFPRDNLRMKNDPLDWNGDHVHTNFRDMYQHLRSMGYFVEVLGAPFTCFDATQYGTLLMVDSEEEYFPEEIAKLRRDVDNGLSLVIFSDWYNTSVMRKVKFYDENTRQWWMPDTGGANIPALNELLSVWNMGFSDGLYEGEFALANHDMYYASGCSIAKFPEDGVVITQTFKDQGLEVLKQETAVVENVPILGLYQIPAEGGGRIVLYGDSNCLDDSHRQKDCFWLLDALLQYTSYGVNPPSLSHSGNRQRPPSGAGLAPPERMEGNHLHRYSKVLEAHLGDPKPRPLPACPHLSWAKPQPLNETAPSNLWKHQKLLSIDLDKVVLPNFRSNRPQVRPLSPGESGAWDIPGGIMPGRYNQEVGQTIPVFAFLGAMVALAFFVVQISKAKSRPKRRRPRAKRPQLTQQTHPPRTPSV	weak activity	expression level required for SREBP-2 cleavage, compared to wild-type S1P (SREBP-2; pTK plasmids, FIG. 16): > 10 -fold
S1P-A: amino acids 23-1052 of SEQ ID NO:1 (protein) DRLGKKAFEKASCPSCSHLTLKVEFSSTVVEYEYIVAFNGYFTAKARNSFISSALKSSEVDNWRIIPRNNPSSDYPSDFEVIQIKEKQKAGLLTLEDHPNIKRVTPQRKVFRSLKFAESDPIVPCNETRWSQKWQSSRPLRRASLSLGSGFWHATGRHSSRRLLRAIPRQVAQTLQADVLWQMGYTGANVRVAVFDTGLSEKHPHFKNVKERTNWTNERTLDDGLGHGTFVAGVIASMRECQGFAPDAELHIFRVFTNNQVSYTSWFLDAFNYAILKKIDVLNLSIGGPDFMDHPFVDKVWELTANNVIMVSAIGNDGPLYGTLNNPADQMDVIGVGGIDFEDNIARFSSRGMTTWELPGGYGRVKPDIVTYGAGVRGSGVKGGCRALSGTSVASPVVAGAVTLLVSTVQKRELVNPASVKQALIASARRLPGVNMFEQGHGKLDLLRAYQILSSYKPQASLSPSYIDLTECPYMWPYCSQPIYYGGMPTIVNVTILNGMGVTGRIVDKPEWRPYLPQNGDNIEVAFSYSSVLWPWSGYLAISISVTKKAASWEGIAQGHIMITVASPAETEAKNGAEHTSTVKLPIKVKIIPTPPRSKRVLWDQYHNLRYPPGYFPRDNLRMKNDPLDWNGDHVHTNFRDMYQHLRSMGYFVEVLGAPFTCFDATQYGTLLMVDSEEEYFPEEIAKLRRDVDNGLSLVIFSDWYNTSVMRKVKFYDENTRQWWMPDTGGANIPALNELLSVWNMGFSDGLYEGEFALANHDMYYASGCSIAKFPEDGVVITQTFKDQGLEVLKQETAVVENVPILGLYQIPAEGGGRIVLYGDSNCLDDSHRQKDCFWLLDALLQYTSYGVNPPSLSHSGNRQRPPSGAGLAPPERMEGNHLHRYSKVLEAHLGDPKPRPLPACPHLSWAKPQPLNETAPSNLWKHQKLLSIDLDKVVLPNFRSNRPQVRPLSPGESGAWDIPGGIMPGRYNQEVGQTIPVFAFLGAMVALAFFVVQISKAKSRPKRRRPRAKRPQLTQQTHPPRTPSV	inactive	
Site B+C mutant: S1P containing both the Site-B and Site-C mutations (protein) DGGRSEQKLISEEDLNGEQKLISEEDLNGEQKLISEEDLNSSGRLGKKAFEKASCPSCSHLTLKVEFSSTVVEYEYIVAFNGYFTAKARNSFISSALKSSEVDNWRIIPRNNPSSDYPSDFEVIQIKEKQKAGLLTLEDHPNIKRVTPQRKVFAAAAFAESDPIVPCNETRWSQKWQSSRPLVAASLSLGSGFWHATGRHSSAAAAAAIPRQVAQTLQADVLWQMGYTGANVRVAVFDTGLSEKHPHFKNVKERTNWTNERTLDDGLGHGTFVAGVIASMRECQGFAPDAELHIFRVFTNNQVSYTSWFLDAFNYAILKKIDVLNLSIGGPDFMDHPFVDKVWELTANNVIMVSAIGNDGPLYGTLNNPADQMDVIGVGGIDFEDNIARFSSRGMTTWELPGGYGRVKPDIVTYGAGVRGSGVKGGCRALSGTSVASPVVAGAVTLLVSTVQKRELVNPASVKQALIASARRLPGVNMFEQGHGKLDLLRAYQILSSYKPQASLSPSYIDLTECPYMWPYCSQPIYYGGMPTIVNVTILNGMGVTGRIVDKPEWRPYLPQNGDNIEVAFSYSSVLWPWSGYLAISISVTKKAASWEGIAQGHIMITVASPAETEAKNGAEHTSTVKLPIKVKIIPTPPRSKRVLWDQYHNLRYPPGYFPRDNLRMKNDPLDWNGDHVHTNFRDMYQHLRSMGYFVEVLGAPFTCFDATQYGTLLMVDSEEEYFPEEIAKLRRDVDNGLSLVIFSDWYNTSVMRKVKFYDENTRQWWMPDTGGANIPALNELLSVWNMGFSDGLYEGEFALANHDMYYASGCSIAKFPEDGVVITQTFKDQGLEVLKQETAVVENVPILGLYQIPAEGGGRIVLYGDSNCLDDSHRQKDCFWLLDALLQYTSYGVNPPSLSHSGNRQRPPSGAGLAPPERMEGNHLHRYSKVLEAHLGDPKPRPLPACPHLSWAKPQPLNETAPSNLWKHQKLLSIDLDKVVLPNFRSNRPQVRPLSPGESGAWDIPGGIMPGRYNQEVGQTIPVFAFLGAMVALAFFVVQISKAKSRPKRRRPRAKRPQLTQQTHPPRTPSV	no detectable cleaved nuclear form	
